The results in this text go back to publication PMC2187331.

Read-outs that look alike come from different tables or passages of the source.

What all share (assay): rosette formation
For test [1], the target named is C receptor type 1, the C3b receptor (human (endogenous in erythrocytes, monocytes and neutrophils)) (UniProt P17927).
For test [2] the target is unchanged. The source holds these as a separate data set.
Test [3] deals with C receptor type 3, iC3b receptor (human (endogenous in monocytes and neutrophils)) (UniProt P11215).
In test [4] the target is C receptor type 1, the C3b receptor (human (endogenous in erythrocytes, monocytes and neutrophils)) (UniProt P17927). This is another data set of the same source.
Test [5] deals with C receptor type 2, the C3d receptor (human (endogenous in Raji)) (UniProt P20023).
In test [6] the target is C receptor type 3, iC3b receptor (human (endogenous in monocytes and neutrophils)) (UniProt P11215). This is another data set of the same source.
The target in test [7] is C receptor type 1, the C3b receptor (human (endogenous in erythrocytes, monocytes and neutrophils)) (UniProt P17927). The source holds these as a separate data set.

C receptor type 2, the C3d receptor (human (endogenous in Raji)), sequence (P20023 21-1033): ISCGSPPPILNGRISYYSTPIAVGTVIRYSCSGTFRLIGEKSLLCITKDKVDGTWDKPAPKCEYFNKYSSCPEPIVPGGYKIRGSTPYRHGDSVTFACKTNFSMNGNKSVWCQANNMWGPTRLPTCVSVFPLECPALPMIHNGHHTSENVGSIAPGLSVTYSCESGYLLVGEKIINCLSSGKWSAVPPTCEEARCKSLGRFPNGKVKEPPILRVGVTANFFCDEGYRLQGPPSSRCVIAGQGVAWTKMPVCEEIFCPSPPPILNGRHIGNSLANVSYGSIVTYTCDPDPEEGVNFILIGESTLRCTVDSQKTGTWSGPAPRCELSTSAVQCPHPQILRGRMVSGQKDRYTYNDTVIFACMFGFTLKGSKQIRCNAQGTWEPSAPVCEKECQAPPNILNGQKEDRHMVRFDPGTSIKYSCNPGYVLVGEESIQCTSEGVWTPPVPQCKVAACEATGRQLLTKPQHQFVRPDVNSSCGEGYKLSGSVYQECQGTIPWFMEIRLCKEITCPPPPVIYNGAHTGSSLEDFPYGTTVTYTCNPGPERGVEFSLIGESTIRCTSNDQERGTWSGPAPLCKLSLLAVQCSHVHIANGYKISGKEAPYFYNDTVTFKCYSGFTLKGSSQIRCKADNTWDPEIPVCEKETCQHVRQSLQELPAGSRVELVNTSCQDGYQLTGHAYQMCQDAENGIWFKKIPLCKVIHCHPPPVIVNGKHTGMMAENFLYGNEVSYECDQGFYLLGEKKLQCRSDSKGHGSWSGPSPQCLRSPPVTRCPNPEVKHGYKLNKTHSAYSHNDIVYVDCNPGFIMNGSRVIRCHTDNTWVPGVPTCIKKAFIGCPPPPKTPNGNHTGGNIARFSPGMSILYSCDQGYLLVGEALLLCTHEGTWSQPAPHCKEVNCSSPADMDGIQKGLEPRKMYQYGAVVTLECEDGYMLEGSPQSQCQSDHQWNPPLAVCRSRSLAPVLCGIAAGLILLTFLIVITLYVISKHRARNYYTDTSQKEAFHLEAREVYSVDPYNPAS
C receptor type 1, the C3b receptor (human (endogenous in erythrocytes, monocytes and neutrophils)), sequence (P17927 42-2039): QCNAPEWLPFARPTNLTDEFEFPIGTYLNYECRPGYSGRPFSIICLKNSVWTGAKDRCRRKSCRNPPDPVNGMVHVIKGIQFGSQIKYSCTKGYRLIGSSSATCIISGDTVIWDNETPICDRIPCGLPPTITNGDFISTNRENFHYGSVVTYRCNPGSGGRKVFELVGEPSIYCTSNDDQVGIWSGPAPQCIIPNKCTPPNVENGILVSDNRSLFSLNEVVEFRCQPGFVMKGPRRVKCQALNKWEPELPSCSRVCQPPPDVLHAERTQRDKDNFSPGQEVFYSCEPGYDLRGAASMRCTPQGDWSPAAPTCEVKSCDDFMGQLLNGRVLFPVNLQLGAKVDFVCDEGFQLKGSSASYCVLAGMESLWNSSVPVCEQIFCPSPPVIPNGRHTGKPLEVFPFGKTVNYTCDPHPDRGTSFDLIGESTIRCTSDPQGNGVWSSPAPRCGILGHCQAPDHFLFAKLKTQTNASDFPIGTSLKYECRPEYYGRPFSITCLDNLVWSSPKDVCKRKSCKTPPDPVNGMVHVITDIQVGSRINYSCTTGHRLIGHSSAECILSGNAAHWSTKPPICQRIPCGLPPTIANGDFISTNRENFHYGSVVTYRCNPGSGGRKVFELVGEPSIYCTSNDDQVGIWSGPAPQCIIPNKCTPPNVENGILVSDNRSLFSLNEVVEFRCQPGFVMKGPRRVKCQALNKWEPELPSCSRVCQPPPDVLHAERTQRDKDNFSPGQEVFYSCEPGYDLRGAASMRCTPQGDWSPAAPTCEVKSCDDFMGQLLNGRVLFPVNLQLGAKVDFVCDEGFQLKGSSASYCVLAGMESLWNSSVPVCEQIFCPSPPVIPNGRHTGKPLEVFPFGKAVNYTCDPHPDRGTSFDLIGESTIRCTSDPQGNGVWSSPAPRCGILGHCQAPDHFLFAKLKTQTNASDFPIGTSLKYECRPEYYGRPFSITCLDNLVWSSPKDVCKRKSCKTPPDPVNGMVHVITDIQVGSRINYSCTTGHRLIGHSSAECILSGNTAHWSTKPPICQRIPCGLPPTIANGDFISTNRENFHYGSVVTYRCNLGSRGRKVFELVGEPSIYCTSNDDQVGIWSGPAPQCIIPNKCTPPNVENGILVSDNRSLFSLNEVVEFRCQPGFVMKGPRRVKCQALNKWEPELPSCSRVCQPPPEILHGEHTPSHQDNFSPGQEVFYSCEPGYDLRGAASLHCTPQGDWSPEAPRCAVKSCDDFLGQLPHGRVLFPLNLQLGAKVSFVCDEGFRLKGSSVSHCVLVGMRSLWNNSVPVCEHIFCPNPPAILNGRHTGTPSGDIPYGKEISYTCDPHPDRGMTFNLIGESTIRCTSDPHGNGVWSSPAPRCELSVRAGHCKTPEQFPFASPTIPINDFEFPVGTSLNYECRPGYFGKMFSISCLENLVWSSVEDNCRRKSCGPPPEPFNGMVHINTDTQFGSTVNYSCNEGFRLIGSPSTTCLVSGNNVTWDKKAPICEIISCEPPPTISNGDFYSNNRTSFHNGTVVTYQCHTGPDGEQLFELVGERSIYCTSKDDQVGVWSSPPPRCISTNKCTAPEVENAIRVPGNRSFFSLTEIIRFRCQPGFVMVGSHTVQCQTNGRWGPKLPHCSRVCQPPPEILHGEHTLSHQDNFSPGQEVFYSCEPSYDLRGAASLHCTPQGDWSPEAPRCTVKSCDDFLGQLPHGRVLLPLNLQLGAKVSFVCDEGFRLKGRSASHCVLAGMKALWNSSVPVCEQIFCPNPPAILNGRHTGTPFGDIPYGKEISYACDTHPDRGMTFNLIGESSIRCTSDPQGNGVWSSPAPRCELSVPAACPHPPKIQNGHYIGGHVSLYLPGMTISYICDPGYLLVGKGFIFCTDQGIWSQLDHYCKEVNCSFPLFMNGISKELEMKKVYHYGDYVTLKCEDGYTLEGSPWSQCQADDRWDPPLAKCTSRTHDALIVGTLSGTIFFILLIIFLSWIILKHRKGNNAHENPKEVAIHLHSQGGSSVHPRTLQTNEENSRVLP
C3c, sequence (P01024 23-1663): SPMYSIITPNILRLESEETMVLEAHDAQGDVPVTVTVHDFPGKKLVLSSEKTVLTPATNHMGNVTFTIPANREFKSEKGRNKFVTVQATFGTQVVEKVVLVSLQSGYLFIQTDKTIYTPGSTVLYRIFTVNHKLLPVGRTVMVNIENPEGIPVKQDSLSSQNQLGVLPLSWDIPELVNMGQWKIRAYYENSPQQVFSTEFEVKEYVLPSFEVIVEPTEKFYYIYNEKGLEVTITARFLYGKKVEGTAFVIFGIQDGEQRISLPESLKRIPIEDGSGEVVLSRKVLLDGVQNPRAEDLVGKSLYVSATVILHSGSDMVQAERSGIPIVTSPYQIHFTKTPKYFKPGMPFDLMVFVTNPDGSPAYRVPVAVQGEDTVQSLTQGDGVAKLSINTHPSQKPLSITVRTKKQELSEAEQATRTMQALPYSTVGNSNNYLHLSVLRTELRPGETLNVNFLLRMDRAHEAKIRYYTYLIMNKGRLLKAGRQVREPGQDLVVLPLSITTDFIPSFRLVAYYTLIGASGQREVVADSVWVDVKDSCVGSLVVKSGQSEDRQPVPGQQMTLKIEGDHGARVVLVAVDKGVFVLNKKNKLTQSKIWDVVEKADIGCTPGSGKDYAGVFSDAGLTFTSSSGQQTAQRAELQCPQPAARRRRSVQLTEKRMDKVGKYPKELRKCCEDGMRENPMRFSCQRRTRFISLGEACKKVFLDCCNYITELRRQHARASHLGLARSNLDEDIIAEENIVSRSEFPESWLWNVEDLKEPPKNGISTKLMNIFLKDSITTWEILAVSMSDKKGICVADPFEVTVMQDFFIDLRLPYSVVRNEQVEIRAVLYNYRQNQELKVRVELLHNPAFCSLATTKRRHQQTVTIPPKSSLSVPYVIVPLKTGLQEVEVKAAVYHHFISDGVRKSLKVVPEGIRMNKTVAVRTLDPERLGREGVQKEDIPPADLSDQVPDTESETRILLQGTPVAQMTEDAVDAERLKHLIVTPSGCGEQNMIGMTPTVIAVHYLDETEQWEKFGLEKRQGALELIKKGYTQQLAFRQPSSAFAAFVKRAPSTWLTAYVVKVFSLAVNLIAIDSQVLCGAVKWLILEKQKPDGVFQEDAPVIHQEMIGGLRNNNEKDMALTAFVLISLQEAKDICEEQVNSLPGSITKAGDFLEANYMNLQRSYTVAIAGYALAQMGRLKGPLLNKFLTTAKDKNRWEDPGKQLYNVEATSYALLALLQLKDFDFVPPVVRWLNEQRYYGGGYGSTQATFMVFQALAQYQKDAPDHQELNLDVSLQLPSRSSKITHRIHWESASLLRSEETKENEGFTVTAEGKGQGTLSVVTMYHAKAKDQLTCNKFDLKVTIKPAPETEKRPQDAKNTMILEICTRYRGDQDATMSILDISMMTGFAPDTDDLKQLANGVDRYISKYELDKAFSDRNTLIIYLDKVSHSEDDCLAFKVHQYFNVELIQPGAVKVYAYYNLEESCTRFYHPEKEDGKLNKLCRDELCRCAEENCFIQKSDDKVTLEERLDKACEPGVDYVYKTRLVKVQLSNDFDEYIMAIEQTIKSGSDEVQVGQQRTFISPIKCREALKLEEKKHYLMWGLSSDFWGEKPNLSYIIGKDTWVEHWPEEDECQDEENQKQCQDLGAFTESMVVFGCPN

In test [1], “iC3b (inactivated C3b) (from UniProt P01024 23-667; P01024 749-1663; P01024 749-1663) (domain or fragment)” showed a % rosette formation (erythrocytes, 37 x 10^3 iC3b per E) of 5%; a % rosette formation (erythrocytes, 65 x 10^3 iC3b per E) of 8%; a % rosette formation (monocytes treated with anti-Mac-1, 14 x 10^3 iC3b per E) of 6%; a % rosette formation (monocytes treated with anti-Mac-1, 65 x 10^3 iC3b per E) of 74%. Moreover, in test [1], the % rosette formation (monocytes, 14 x 10^3 iC3b per E) came out at 8%; the % rosette formation (monocytes, 65 x 10^3 iC3b per E) was found to be 77%; the % rosette formation (neutrophils treated with anti-Mac-1, 14 x 10^3 iC3b per E) came out at 3%; the % rosette formation (neutrophils treated with anti-Mac-1, 65 x 10^3 iC3b per E) came to 93%. In test [1], this substance displayed a % rosette formation (neutrophils, 14 x 10^3 iC3b per E) of 2%; a % rosette formation (neutrophils, 37 x 10^3 iC3b per E) of 78%; a % rosette formation (neutrophils, 65 x 10^3 iC3b per E) of 97%. In test [2], this substance showed a % rosette formation (erythrocytes, 14 x 10^3 iC3b per E) of 10%; a % rosette formation (erythrocytes, 37 x 10^3 iC3b per E) of 22%; a % rosette formation (erythrocytes, 65 x 10^3 iC3b per E) of 32%; a % rosette formation (monocytes treated with anti-Mac-1, 14 x 10^3 iC3b per E) of 13%. In test [2], this substance returned a % rosette formation (monocytes treated with anti-Mac-1, 65 x 10^3 iC3b per E) of 81%; a % rosette formation (monocytes, 14 x 10^3 iC3b per E) of 18%; a % rosette formation (monocytes, 65 x 10^3 iC3b per E) of 85%; a % rosette formation (neutrophils treated with anti-Mac-1, 14 x 10^3 iC3b per E) of 9%. In test [2], this substance yielded a % rosette formation (neutrophils treated with anti-Mac-1, 65 x 10^3 iC3b per E) of 86%; a % rosette formation (neutrophils, 14 x 10^3 iC3b per E) of 11%; a % rosette formation (neutrophils, 37 x 10^3 iC3b per E) of 84%; a % rosette formation (neutrophils, 65 x 10^3 iC3b per E) of 88%. Besides, in test [3], the % rosette formation (anti-CR1-treated monocytes, 1.4 x 10^4 iC3b per E, BDVA) worked out at 84%; the % rosette formation (anti-CR1-treated monocytes, 7.9 x 10^3 iC3b per E, BDVA) worked out at 44%; the % rosette formation (monocytes treated with anti-CR1, 14 x 10^3 iC3b per E) stood at 95%; the % rosette formation (monocytes treated with anti-CR1, 65 x 10^3 iC3b per E) came out at 94%. Also, in test [3], the % rosette formation (monocytes, 7.9 x 10^3 iC3b per E) was found to be 86%; the % rosette formation (neutrophils treated with anti-CR1, 14 x 10^3 iC3b per E) is 100%; the % rosette formation (neutrophils treated with anti-CR1, 65 x 10^3 iC3b per E) was found to be 100%. In test [4], this substance registered a % rosette formation (erythrocytes, 14 x 10^3 iC3b per E) of 21%; a % rosette formation (erythrocytes, 37 x 10^3 iC3b per E) of 39%; a % rosette formation (erythrocytes, 65 x 10^3 iC3b per E) of 60%; a % rosette formation (iC3b microspheres, erythrocytes, buffer) of 75%. Further, in test [4], the % rosette formation (iC3b microspheres, monocytes, buffer) came out at 96%; the % rosette formation (monocytes treated with anti-Mac-1, 14 x 10^3 iC3b per E) turned out to be 20%; the % rosette formation (monocytes treated with anti-Mac-1, 65 x 10^3 iC3b per E) was found to be 92%; the % rosette formation (neutrophils treated with anti-Mac-1, 14 x 10^3 iC3b per E) is 13%. The substance further returned a % rosette formation (neutrophils treated with anti-Mac-1, 65 x 10^3 iC3b per E) in test [4] of 100%. Moreover, in test [5], the % rosette formation (iC3b microspheres, Raji cells, buffer) turned out to be 98%. In test [6], this substance gave a % rosette formation (monocytes treated with anti-CR1, 14 x 10^3 iC3b per E) of 74%; a % rosette formation (monocytes treated with anti-CR1, 65 x 10^3 iC3b per E) of 85%; a % rosette formation (monocytes, 7.9 x 10^3 iC3b per E) of 59%; a % rosette formation (neutrophils treated with anti-CR1, 14 x 10^3 iC3b per E) of 79%. This substance also displayed a % rosette formation (neutrophils treated with anti-CR1, 65 x 10^3 iC3b per E) in test [6] of 92%. In test [7], this substance returned a % rosette formation (erythrocytes, 37 x 10^3 iC3b per E) of 15%; a % rosette formation (erythrocytes, 65 x 10^3 iC3b per E) of 22%; a % rosette formation (monocytes treated with anti-Mac-1, 14 x 10^3 iC3b per E) of 5%; a % rosette formation (monocytes treated with anti-Mac-1, 65 x 10^3 iC3b per E) of 75%. Further, in test [7], the % rosette formation (neutrophils treated with anti-Mac-1, 14 x 10^3 iC3b per E) was 4% and the % rosette formation (neutrophils treated with anti-Mac-1, 65 x 10^3 iC3b per E) is 95%.

Consider “C3d,g (from UniProt P01024 1002-1303) (domain or fragment)”, for which, in test [5], the % rosette formation (C3d,g microspheres, Raji cells, buffer) stood at 99% and the % rosette formation (Raji cells, 6.9 x 10^4 C3d,g per E, buffer) was 99%.

Regarding “C3c (from UniProt P01024 23-667; P01024 749-954; P01024 1321-1663) (domain or fragment)”, in test [4], the % rosette formation (C3c microspheres, erythrocytes, buffer) is 72% and the % rosette formation (C3c microspheres, monocytes, buffer) came out at 80%.
